Measurements: publication PMC6769691
pIC50: −log10 of the molar value.

Key:
[1] = target: CD13 (aminopeptidase N), CNGRC-binder isoform, on HUVEC, mesoangioblasts (MB) and MR300 cells (human (endogenous in HUVEC, MB, MR300)) (UniProt P15144)
[2] = target: TNFRs on MR300 cells (human (endogenous in MR300)); experiment: immunostaining of cells or tissue; competition on adherent MR300 cells (CNGRC-binder): hTNF-Fc (1:50) staining, 1 h at room temperature, Alexa-594 anti-human antibody, with 0.01 to 30 µg/mL unlabeled NGR-hTNF or hTNF; percent of control

Chain of CD13 (aminopeptidase N), CNGRC-binder isoform, on HUVEC, mesoangioblasts (MB) and MR300 cells (human (endogenous in HUVEC, MB, MR300)) (P15144 whole entry, canonical isoform): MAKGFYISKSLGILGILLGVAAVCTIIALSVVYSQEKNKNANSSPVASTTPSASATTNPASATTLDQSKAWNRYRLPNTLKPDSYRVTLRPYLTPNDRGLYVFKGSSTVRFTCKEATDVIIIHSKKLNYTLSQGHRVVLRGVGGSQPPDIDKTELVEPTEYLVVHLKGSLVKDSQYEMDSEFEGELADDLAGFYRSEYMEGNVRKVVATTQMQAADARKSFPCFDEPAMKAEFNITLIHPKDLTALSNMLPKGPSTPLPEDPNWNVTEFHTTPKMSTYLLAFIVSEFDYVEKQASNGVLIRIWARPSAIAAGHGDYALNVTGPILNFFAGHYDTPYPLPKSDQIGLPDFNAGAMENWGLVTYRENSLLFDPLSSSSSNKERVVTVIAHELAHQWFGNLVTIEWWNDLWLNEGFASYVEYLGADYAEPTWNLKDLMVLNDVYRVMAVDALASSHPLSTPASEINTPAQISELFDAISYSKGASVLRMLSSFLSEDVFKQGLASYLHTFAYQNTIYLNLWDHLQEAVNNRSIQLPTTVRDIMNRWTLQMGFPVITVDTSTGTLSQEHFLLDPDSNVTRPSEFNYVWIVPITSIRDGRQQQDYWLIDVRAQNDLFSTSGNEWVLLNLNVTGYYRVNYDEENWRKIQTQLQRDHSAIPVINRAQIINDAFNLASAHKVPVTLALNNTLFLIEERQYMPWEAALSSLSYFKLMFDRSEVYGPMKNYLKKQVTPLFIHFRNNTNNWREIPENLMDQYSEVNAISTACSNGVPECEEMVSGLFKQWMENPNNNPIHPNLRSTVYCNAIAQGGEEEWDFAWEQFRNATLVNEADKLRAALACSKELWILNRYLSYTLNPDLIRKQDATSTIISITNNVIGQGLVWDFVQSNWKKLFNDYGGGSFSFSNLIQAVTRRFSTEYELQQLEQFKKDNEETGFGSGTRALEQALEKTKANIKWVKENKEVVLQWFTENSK

phosphorylation of Akt-Ser473 in MR300 cells treated with NGR-hTNF in comparison to hTNF (Kinexus phospho-site screen) [1] [%] | phosphorylation of Erk1 in MR300 cells treated with NGR-hTNF in comparison to hTNF (Kinexus phospho-site screen) [1] [%] | phosphorylation of Erk2 in MR300 cells treated with NGR-hTNF in comparison to hTNF (Kinexus phospho-site screen) [1] [%] | pIC50 [2] | Substance
-36 | -36 | -35 | 8.30 | NGR-hTNF (ligand)
– | – | – | 7.70 | hTNF (ligand)
